Consider one molecule from paper PMC9569640 (2022).

Square brackets hold non-standard residues; d marks the D form. Ends that are not written are not given here. FAM = FAM, a fluorescent label attached at the N-terminus of the peptide; pY = N[C@@H](Cc1ccc(OP(=O)(O)O)cc1)C(=O)O

For orientation: Kd means the concentration at which binding is half-saturated. Read a low Kd as tighter binding.

Common to all, as to assay: fluorescence polarization
For experiment [1], the target named is CagA EPIYA-D 13-mer (Helicobacter pylori).
Experiment [2] has as its target CagA EPIYA-A 13-mer (Helicobacter pylori).
In experiment [3] the target is T1, CagA EPIYA-CD 8-mer (Helicobacter pylori).
T1 chain: {FAM}-EPI[pY]ATID

Experiment [4] concerns the target T2, CagA EPIYA-B 13-mer (Helicobacter pylori).
T2 chain: {FAM}-PEEPI[pY]AQVAKKV

In experiment [5] the target is T3, CagA EPIYA-C 13-mer (Helicobacter pylori).
T3 chain: {FAM}-SPEPI[pY]ATIDDLG

B1: SHIP2 SH2 (protein)
chain: APSWYHRDLSRAAAEELLARAGRDGSFLVRDSESVAGAFALCVLYQKHVHTYRILPDGEDFLAVQTSQGVPVRRFQTLGELIGLYAQPNQGLVCALLLPVEGE
For B1, the Kd in experiment [1] was found to be 3.16 µM; in experiment [2] it was 23.4 µM; in experiment [3], 4.45 µM; in experiment [4], 18.6 µM; in experiment [5] it was 2.96 µM.
